The values below come from publication PMC2994726 (PLoS ONE, 2010).

A word on the pKi: it is the negative decadic logarithm of the Ki, by convention in mol/L.

Assay [1] addresses Luc-tagged rat AT1a receptor DRY/AAY truncated after serine 331 (DRY/AAY 331Δ) (rat) (UniProt P25095). The assay is described as follows: FRET or BRET; BRET2 in live HEK293 cells co-transfected with Luc-tagged rAT1aR and GFP2-β-arrestin2; dose-response to Ang II, read 15 min after agonist addition. For orientation: Bioluminescence resonance energy transfer reports proximity on the nanometre scale.

The target in assay [2] is Luc-tagged rat AT1a receptor DRY/AAY, full length (rat) (UniProt P25095). Described as above.
In assay [3] the target is Luc-tagged rat AT1a receptor DRY/AAY truncated after serine 331 (DRY/AAY 331Δ) (rat) (UniProt P25095). The assay can be described thus: FRET or BRET; BRET2 in live HEK293 cells co-transfected with Luc-tagged rAT1aR and GFP2-β-arrestin2; dose-response to SII Ang II, read 15 min after agonist addition.
For assay [4], the target named is Luc-tagged rat AT1a receptor DRY/AAY, full length (rat) (UniProt P25095). Described as above.
For assay [5], the target named is FLAG-tagged rat AT1a receptor DRY/AAY, full length (rat) (UniProt P25095). The assay is described as follows: radioligand binding; whole-cell heterologous competition on transfected COS-7 cells: 1 nM 3H-Ang II tracer and increasing unlabeled SII Ang II, 3 h at 4°C; pKi calculated from Ang II KD values of experiments run in parallel.
Assay [6] concerns the target FLAG-tagged rat AT1a receptor DRY/AAY truncated after serine 331 (DRY/AAY 331Δ) (rat) (UniProt P25095). Described as above.
The target in assay [7] is T1, FLAG-tagged rat AT1a receptor WT truncated after serine 331 (WT 331Δ) (rat, UniProt P25095 1-331).
T1 construct: source: COS-7, transiently transfected, on whole cells; not shown: FLAG, N-terminal, kept
T1 sequence (looked up): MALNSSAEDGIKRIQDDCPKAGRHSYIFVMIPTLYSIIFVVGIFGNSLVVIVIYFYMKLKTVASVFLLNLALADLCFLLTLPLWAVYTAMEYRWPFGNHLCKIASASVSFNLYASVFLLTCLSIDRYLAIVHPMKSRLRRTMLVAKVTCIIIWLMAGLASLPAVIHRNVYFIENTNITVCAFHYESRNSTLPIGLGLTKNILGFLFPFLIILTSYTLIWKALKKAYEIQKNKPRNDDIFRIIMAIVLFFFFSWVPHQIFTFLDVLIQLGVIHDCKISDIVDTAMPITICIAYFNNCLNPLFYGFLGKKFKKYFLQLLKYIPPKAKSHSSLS
The assay is described as above. The settings on record: one partner purified.

Assay [8] addresses T2, FLAG-tagged rat AT1a receptor (rAT1aR), WT, full length (rat, UniProt P25095 1-359).
T2 construct: Angiotensin II type 1a receptor (AT1aR), rat, full length; also called AT1R; Angiotensin II type 1 receptor; source: COS-7, transiently transfected, on whole cells; not shown: FLAG, N-terminal, kept
T2 sequence (looked up): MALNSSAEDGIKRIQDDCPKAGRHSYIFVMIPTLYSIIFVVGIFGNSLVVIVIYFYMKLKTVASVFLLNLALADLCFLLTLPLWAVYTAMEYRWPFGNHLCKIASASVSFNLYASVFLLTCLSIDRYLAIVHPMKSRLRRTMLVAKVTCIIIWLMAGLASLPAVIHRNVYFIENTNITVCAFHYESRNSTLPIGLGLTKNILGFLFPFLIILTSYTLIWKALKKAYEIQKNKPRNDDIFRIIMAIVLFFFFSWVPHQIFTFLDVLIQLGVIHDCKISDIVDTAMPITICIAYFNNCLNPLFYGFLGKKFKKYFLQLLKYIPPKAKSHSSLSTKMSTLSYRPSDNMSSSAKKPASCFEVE
The description is as above. To be noted: one partner purified.

Consider “GFP2-tagged β-arrestin2 (from UniProt P32121 1-409) (natural protein)”, for which the pEC50 of Ang II for induced recruitment (BRET2) in assay [1] and in assay [2] was 8.2 in each case. The same molecule gave a pEC50 of SII Ang II for induced recruitment (BRET2, from normalized curves) in assay [3] of 7. The same molecule registered a pEC50 of SII Ang II for induced recruitment (BRET2) in assay [4] of 7.5.
For Sar1-Ile4-Ile8 (SII) Ang II (peptide), the figures for the pKi in assay [5] and in assay [6] were 6.1 and 6.2, respectively.
On to GRVIIHPI (sarcosine at position 1 (Sar1)) [Sar1-Ile4-Ile8 (SII) Ang II], for which the pKi in assay [7] was 6; in assay [8], 5.9.
